From paper PMC7671560, “SAXS studies of X-ray induced disulfide bond damage: Engineering high-resolution insight from a low-resolution technique” (PLoS ONE, 2020)

Biological target: the molecule itself
Assay: SEC; Superdex 200 10/300 in 20 mM Tris-HCl pH 7.5, 50 mM NaCl, 5 mM EDTA; 100 uL at about 5 mg/ml injected; elution times compared to a standard curve; monomer to disulfide-linked dimer

B1: endoHCYS (FRAGCYS-endoH-His6; Endoglycosidase-H with a 7 aa cysteine-containing fragment on its N-terminus) (enzyme)
chain: SLSTGCYVKQGPTSVAYVEVNNNSMLNVGKYTLADGGGNAFDVAVIFAANINYDTGTKTAYLHFNENVQRVLDNAVTQIRPLQQQGIKVLLSVLGNHQGAGFANFPSQQAASAFAKQLSDAVAKYGLDGVDFDDEYAEYGNNGTAQPNDSSFVHLVTALRANMPDKIISLYNIGPAASRLSYGGVDVSDKFDYAWNPYYGTWQVPGIALPKAQLSPAAVEIGRTSRSTVADLARRTVDEGYGVYLTYNLDGGDRTADVSAFTRELYGSEAVRTP
notes: 7 aa fragment with a single free cysteine ('FRAGCYS') attached to the flexible N-terminus of endoH; Endoglycosidase-H (endoH), P04067, aa 47-313; has no native cysteines; The chain is written once as the protomer; two protomers join through an intermolecular disulfide between the cysteines of FRAGCYS (about 75% dimer, 25% monomer in the preparation); The structure's own numbering has Val-8 as the …
Question: With B1 as the protein, how does the “stoichiometry N” value read?
Answer: 2
